The values below come from the supplement of paper PMC7125110.

B1: glmS ribozyme (parent)
chain: AUAAAAGCGCCAGAACUACAGAAAUGUAGUUGACGAGGAGGAGGUUUAUCGAAUUUUCGGCGGAUGCCUCCAAA

± gives the standard error. For some assays here: Variants at the floor of the assay were thinned out.

Conditions in all cases: with glucosamine-6-phosphate
Variants of B1 are the subject of data set [1]. Nature of the data set: kcat; higher = faster cleavage; RNA array. In a few lines: (§1)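 Tiles bearing barcoded ribozyme variants, transcribed in situ by E. coli RNA polymerase on sequenced MiSeq chips, were imaged over ~14 h at 37 °C using a hybridised Cy3 probe. Glucosamine-6-phosphate was supplied at 40 μM to 10 mM in HEPES/KCl/Mg(OAc)2 buffer. kobs came from one- or two-exponential decay fits to normalised per-tile medians, and weighted Michaelis–Menten fits then provided kcat and KM.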

In data set [2] the parent is B1. In words: self-cleavage kobs at 640 uM GlcN6P; higher = faster cleavage; RNA array. In a few lines:
as §1

In data set [3] the parent is B1. Nature of the data set: self-cleavage kobs at 2500 uM GlcN6P; higher = faster cleavage; RNA array. A digest of the protocol:
as §1

In data set [4] the parent is B1. Nature of the data set: self-cleavage kobs at 10000 uM GlcN6P; higher = faster cleavage; RNA array. In a few lines:
as §1

In data set [5] the parent is B1. Nature of the data set: KM; higher = weaker cofactor use; RNA array. A digest of the protocol: as §1
In data set [6] the parent is B1. In words: self-cleavage kobs at 40 uM GlcN6P; higher = faster cleavage; RNA array. A digest of the protocol:
as §1

Data set [7] covers variants of B1. In words: self-cleavage kobs at 160 uM GlcN6P; higher = faster cleavage; RNA array. A digest of the protocol:
as §1

As for U54C C68G, the turnover number (kcat) with glucosamine-6-phosphate [1] worked out at 8.49e-05 ± 1.1e-05 s⁻¹. Moreover, the “self-cleavage kobs at 640 uM GlcN6P” value in the data set with glucosamine-6-phosphate [2] is 4.44e-05 ± 1e-05 s⁻¹. Besides, the “self-cleavage kobs at 2500 uM GlcN6P” value in the data set with glucosamine-6-phosphate [3] was determined as 9.2e-05 ± 1.4e-05 s⁻¹. Moreover, in the data set with glucosamine-6-phosphate [4], the “self-cleavage kobs at 10000 uM GlcN6P” value is 7.49e-05 ± 1e-05 s⁻¹.

For the variant G37U A53G, in the data set with glucosamine-6-phosphate [1], the kcat is 1.16e-05 ± 3.4e-06 s⁻¹.

Consider A14G C50A, for which, in the data set with glucosamine-6-phosphate [1], the catalytic constant (kcat) is 7.1e-05 ± 2e-06 s⁻¹. Moreover, the KM with glucosamine-6-phosphate [5] is 1890 ± 220 µM. Moreover, the “self-cleavage kobs at 2500 uM GlcN6P” value with glucosamine-6-phosphate [3] was 3.98e-05 ± 9.6e-06 s⁻¹. For the same variant, the “self-cleavage kobs at 10000 uM GlcN6P” value with glucosamine-6-phosphate [4] was 5.99e-05 ± 7e-06 s⁻¹.

As for U45A A64U, in the data set with glucosamine-6-phosphate [1], the kcat worked out at 0.000543 ± 3.2e-05 s⁻¹. Moreover, in the data set with glucosamine-6-phosphate [5], the KM is 2140 ± 230 µM. Moreover, the “self-cleavage kobs at 640 uM GlcN6P” value with glucosamine-6-phosphate [2] is 0.00013 ± 2.1e-05 s⁻¹. Moreover, in the data set with glucosamine-6-phosphate [3], the “self-cleavage kobs at 2500 uM GlcN6P” value came to 0.00029 ± 4.4e-05 s⁻¹. The “self-cleavage kobs at 10000 uM GlcN6P” value with glucosamine-6-phosphate [4] is 0.000447 ± 7.9e-05 s⁻¹.

Turning to U30A C68U, the kcat with glucosamine-6-phosphate [1] is 0.000818 ± 0.00016 s⁻¹. The KM in the data set with glucosamine-6-phosphate [5] was found to be 1730 ± 610 µM. The “self-cleavage kobs at 40 uM GlcN6P” value with glucosamine-6-phosphate [6] worked out at 3.27e-05 ± 1.2e-05 s⁻¹. Besides, in the data set with glucosamine-6-phosphate [7], the “self-cleavage kobs at 160 uM GlcN6P” value turned out to be 9.37e-05 ± 2e-05 s⁻¹. For the same variant, in the data set with glucosamine-6-phosphate [2], the “self-cleavage kobs at 640 uM GlcN6P” value amounted to 0.000204 ± 2.7e-05 s⁻¹. Moreover, in the data set with glucosamine-6-phosphate [3], the “self-cleavage kobs at 2500 uM GlcN6P” value was 0.000417 ± 6.6e-05 s⁻¹. Moreover, in the data set with glucosamine-6-phosphate [4], the “self-cleavage kobs at 10000 uM GlcN6P” value turned out to be 0.000776 ± 9.4e-05 s⁻¹.

For A48G U54A, the kcat with glucosamine-6-phosphate [1] turned out to be 0.000153 ± 2.2e-05 s⁻¹. For the same variant, the Michaelis-Menten constant (KM) with glucosamine-6-phosphate [5] was 1650 ± 590 µM. Besides, the “self-cleavage kobs at 640 uM GlcN6P” value with glucosamine-6-phosphate [2] turned out to be 3.77e-05 ± 9.3e-06 s⁻¹. The “self-cleavage kobs at 2500 uM GlcN6P” value with glucosamine-6-phosphate [3] was determined as 0.000115 ± 1.8e-05 s⁻¹. Besides, the “self-cleavage kobs at 10000 uM GlcN6P” value with glucosamine-6-phosphate [4] was 0.000123 ± 1.8e-05 s⁻¹.

As for A15U U54C, the kcat with glucosamine-6-phosphate [1] stood at 0.00568 ± 0.0015 s⁻¹. In the data set with glucosamine-6-phosphate [5], the KM amounted to 1560 ± 660 µM. In addition, in the data set with glucosamine-6-phosphate [6], the “self-cleavage kobs at 40 uM GlcN6P” value was found to be 0.000186 ± 2.3e-05 s⁻¹. Further, in the data set with glucosamine-6-phosphate [7], the “self-cleavage kobs at 160 uM GlcN6P” value is 0.000292 ± 0.0001 s⁻¹. The “self-cleavage kobs at 640 uM GlcN6P” value in the data set with glucosamine-6-phosphate [2] amounted to 0.00189 ± 0.0003 s⁻¹. In addition, the “self-cleavage kobs at 2500 uM GlcN6P” value with glucosamine-6-phosphate [3] turned out to be 0.00297 ± 0.00042 s⁻¹. The “self-cleavage kobs at 10000 uM GlcN6P” value in the data set with glucosamine-6-phosphate [4] is 0.00553 ± 0.00066 s⁻¹.

As to A42U U56G, the kcat with glucosamine-6-phosphate [1] is 0.000177 ± 1.9e-05 s⁻¹. In the data set with glucosamine-6-phosphate [5], the Michaelis constant (KM) turned out to be 3910 ± 850 µM. For the same variant, the “self-cleavage kobs at 640 uM GlcN6P” value with glucosamine-6-phosphate [2] worked out at 2.06e-05 ± 8.1e-06 s⁻¹. For the same variant, the “self-cleavage kobs at 2500 uM GlcN6P” value in the data set with glucosamine-6-phosphate [3] was 7.54e-05 ± 1.2e-05 s⁻¹. In addition, the “self-cleavage kobs at 10000 uM GlcN6P” value in the data set with glucosamine-6-phosphate [4] stood at 0.000125 ± 1.7e-05 s⁻¹.

Take A48U U65C: the kcat in the data set with glucosamine-6-phosphate [1] was 4.55e-05 ± 6.5e-06 s⁻¹. In addition, in the data set with glucosamine-6-phosphate [6], the “self-cleavage kobs at 40 uM GlcN6P” value is under 1e-05 s⁻¹. In the data set with glucosamine-6-phosphate [3], the “self-cleavage kobs at 2500 uM GlcN6P” value came to 4.16e-05 ± 1.4e-05 s⁻¹. Also, the “self-cleavage kobs at 10000 uM GlcN6P” value in the data set with glucosamine-6-phosphate [4] came out at 3.92e-05 ± 1.5e-05 s⁻¹.

On to G7A A39U, for which the kcat in the data set with glucosamine-6-phosphate [1] turned out to be 1.87e-05 ± 1.7e-06 s⁻¹. Besides, in the data set with glucosamine-6-phosphate [5], the KM came to 2780 ± 970 µM.

For U31A U54G, the kcat in the data set with glucosamine-6-phosphate [1] stood at 0.0208 ± 0.0046 s⁻¹. For the same variant, the KM with glucosamine-6-phosphate [5] was 3520 ± 990 µM. The “self-cleavage kobs at 40 uM GlcN6P” value with glucosamine-6-phosphate [6] was found to be 0.00027 ± 3.9e-05 s⁻¹. Besides, the “self-cleavage kobs at 160 uM GlcN6P” value with glucosamine-6-phosphate [7] amounted to 0.00075 ± 0.00015 s⁻¹. Also, in the data set with glucosamine-6-phosphate [2], the “self-cleavage kobs at 640 uM GlcN6P” value amounted to 0.00291 ± 0.00094 s⁻¹. The “self-cleavage kobs at 2500 uM GlcN6P” value with glucosamine-6-phosphate [3] stood at 0.016 ± 0.0066 s⁻¹. The “self-cleavage kobs at 10000 uM GlcN6P” value with glucosamine-6-phosphate [4] was found to be 0.0152 ± 0.0024 s⁻¹.

On to A14U C50A, for which the kcat with glucosamine-6-phosphate [1] came out at 1.95e-05 ± 4.6e-06 s⁻¹.

With G29C, in the data set with glucosamine-6-phosphate [1], the kcat stood at 0.0045 ± 0.0012 s⁻¹. Moreover, the KM with glucosamine-6-phosphate [5] was determined as 2300 ± 720 µM. The “self-cleavage kobs at 40 uM GlcN6P” value with glucosamine-6-phosphate [6] is 8.88e-05 ± 1.6e-06 s⁻¹. Moreover, the “self-cleavage kobs at 160 uM GlcN6P” value in the data set with glucosamine-6-phosphate [7] was 0.000212 ± 8.4e-06 s⁻¹. The “self-cleavage kobs at 640 uM GlcN6P” value with glucosamine-6-phosphate [2] was found to be 0.000839 ± 4.1e-05 s⁻¹. Also, the “self-cleavage kobs at 2500 uM GlcN6P” value with glucosamine-6-phosphate [3] was found to be 0.00239 ± 0.0001 s⁻¹. Further, the “self-cleavage kobs at 10000 uM GlcN6P” value with glucosamine-6-phosphate [4] turned out to be 0.00377 ± 0.00011 s⁻¹.

On to U65G C70U, for which, in the data set with glucosamine-6-phosphate [1], the kcat amounted to 0.00416 ± 0.00036 s⁻¹. Besides, the Michaelis-Menten constant (KM) in the data set with glucosamine-6-phosphate [5] is 2980 ± 340 µM. Further, the “self-cleavage kobs at 40 uM GlcN6P” value with glucosamine-6-phosphate [6] stood at 5.75e-05 ± 5e-06 s⁻¹. Moreover, the “self-cleavage kobs at 160 uM GlcN6P” value in the data set with glucosamine-6-phosphate [7] was found to be 0.000203 ± 1.7e-05 s⁻¹. The “self-cleavage kobs at 640 uM GlcN6P” value with glucosamine-6-phosphate [2] came out at 0.000728 ± 6e-05 s⁻¹. In the data set with glucosamine-6-phosphate [3], the “self-cleavage kobs at 2500 uM GlcN6P” value was determined as 0.00238 ± 0.00036 s⁻¹. Besides, in the data set with glucosamine-6-phosphate [4], the “self-cleavage kobs at 10000 uM GlcN6P” value worked out at 0.00315 ± 0.00024 s⁻¹.

As for G29A G59C C70G, the kcat in the data set with glucosamine-6-phosphate [1] is under 1e-05 s⁻¹.

On to C10G A15G, for which, in the data set with glucosamine-6-phosphate [1], the kcat came out at 1.16e-05 ± 4e-06 s⁻¹.

In the case of C11A C71G, the kcat in the data set with glucosamine-6-phosphate [1] amounted to 5.67e-05 ± 6.5e-06 s⁻¹. Further, in the data set with glucosamine-6-phosphate [3], the “self-cleavage kobs at 2500 uM GlcN6P” value amounted to 4.99e-05 ± 1.2e-05 s⁻¹. Besides, in the data set with glucosamine-6-phosphate [4], the “self-cleavage kobs at 10000 uM GlcN6P” value is 5.95e-05 ± 1.3e-05 s⁻¹.

Usually kcat stands for the maximal rate divided by the concentration of active sites. Broadly, the KM is the concentration of substrate that gives half-maximal velocity.
